Assay results as given in paper PMC5366289 (Biochemistry, 2016).
Read-outs that look alike come from different tables or passages of the source.

How the values were obtained:
[1] = Far-UV circular dichroism, helical content of T-domain peptides; format: physicochemical; details: for no. of residues, unordered: total number in peptide excluding tags minus residues in helices; for secondary structure, in words: far-UV CD, 50 mM sodium phosphate; for no. of residues, helix: from helical content by far-UV CD, DichroWeb, tags assumed unordered
TolC = TolC (Escherichia coli, UniProt P02930); details: for occlusion of TolC channels (Figure 3 legend): 2 μg/mL both sides, 50 mV, 0.1 M KCl, 5 mM Tris-HCl pH 7.5
[2] = Thermal melting followed by CD at 222 nm; format: physicochemical; details: CD 222 nm, 0.5 °C/min, 1 cm cuvette, pH 7.0
[3] = reference for disordered protein in CD222/CD208 plot; cited from earlier work
TolC trimer [4] = biological target: T1, TolC trimer (E. coli, UniProt P02930 23-493); experiment: SEC
T1 sequence (looked up): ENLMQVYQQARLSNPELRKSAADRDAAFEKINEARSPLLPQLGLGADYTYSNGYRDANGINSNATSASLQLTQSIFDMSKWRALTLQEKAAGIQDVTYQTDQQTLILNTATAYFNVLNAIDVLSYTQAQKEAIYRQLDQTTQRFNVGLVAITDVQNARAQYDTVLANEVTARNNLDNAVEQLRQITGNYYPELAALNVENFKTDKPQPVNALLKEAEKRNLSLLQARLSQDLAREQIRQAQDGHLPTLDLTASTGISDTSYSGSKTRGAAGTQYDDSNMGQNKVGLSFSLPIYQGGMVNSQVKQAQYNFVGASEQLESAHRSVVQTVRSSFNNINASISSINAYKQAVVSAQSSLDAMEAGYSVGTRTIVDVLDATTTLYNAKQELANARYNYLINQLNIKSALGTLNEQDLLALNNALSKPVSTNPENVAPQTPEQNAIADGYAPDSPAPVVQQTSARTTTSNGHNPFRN

TolC trimer [5] = experiment: Co-elution of T-domain peptides with TolC on Superdex 200 size-exclusion column; format: binding, Escherichia coli; details: TolC:peptide 1:2, Superdex 200; peak shift and SDS–PAGE
TolC trimer [6] = biological target: T1, TolC trimer; experiment: occlusion of TolC ion channels in planar bilayer lipid membranes
TolC trimer [7] = biological target: T1, TolC trimer; experiment: SEC; remark: listed apart in the source
TolC trimer [8] = biological target: T1, TolC trimer; experiment: precipitation upon mixing

**Q.** Which results are given for “100–140 ^b: colicin E1 T-domain peptide, residues 100–140 (EALRHNASRTPSATELAHANNAAMQAEDERLRLAKAEEKAR; UniProt P02978 100-140, looked up, fragment)”?
**A.** no. of residues, unordered [1]: 15 residues; occlusion of TolC channels (Figure 3 legend) (TolC): Occlusion of TolC channels; effect on transmembrane current through TolC channels (TolC; 2 μg/mL on both sides of BLM): significant and irreversible decrease in transmembrane current

**Q.** With “81–140 ^b: colicin E1 T-domain peptide, residues 81–140 (AKAKANRDALTQRLKDIVNEALRHNASRTPSATELAHANNAAMQAEDERLRLAKAEEKAR; UniProt P02978 81-140, looked up, fragment)” as the molecule, how does the “no. of residues, unordered” value [1] read?
**A.** 25 residues

**Q.** Which “no. of residues, unordered” value [1] does the source give for “141–190 ^c: colicin E1 T-domain peptide, residues 141–190 (KEAEAAEKAFQEAEQRRKEIEREKAETERQLKLAEAEEKRLAALSEEAKA)” here?
**A.** 5 residues

**Q.** And the “cooperativity of thermal melting” value [2]?
**A.** not cooperative

**Q.** For α-synuclein, which helical content [3] is on record?
**A.** 0%

**Q.** Which results are given for “1–40 ^c: colicin E1 T-domain peptide, residues 1–40 (METAVAYYKDGVPYDDKGQVIITLLNGTPDGSGSGGGGGK; UniProt P02978 1-40, looked up, fragment)”?
**A.** secondary structure, in words [1]: predominately disordered; no. of residues, helix [1]: 0 residues; no. of residues, unordered [1]: 40 residues

**Q.** With “139–190 ^b: colicin E1 T-domain peptide, residues 139–190 (ARKEAEAAEKAFQEAEQRRKEIEREKAETERQLKLAEAEEKRLAALSEEAKA; UniProt P02978 139-190, looked up, fragment)” as the molecule, how does the “no. of residues, unordered” value [1] read?
**A.** 7 residues

B1: colicin E1 T-domain peptide T57–190 (domain or fragment)
chain: WSTAQLKKTQAEQAARAKAAAEAQAKAKANRDALTQRLKDIVNEALRHNASRTPSATELAHANNAAMQAEDERLRLAKAEEKARKEAEAAEKAFQEAEQRRKEIEREKAETERQLKLAEAEEKRLAALSEEAKA
**Q.** Does B1 bind (TolC trimer [4])?
**A.** binds

B2: colicin E3 peptide T1–83: naturally disordered T1–83 peptide of colicin E3 used for zero helical content (peptide, UniProt P00646 1-83, looked up, fragment)
chain: MSGGDGRGHNTGAHSTSGNINGGPTGLGVGGGASDGSGWSSENNPWGGGSGSGIHWGGGSGHGNGGGNGNSGGGSGTGGNLSA
**Q.** For B2, which helical content ([1]; reference for disordered protein in CD222/CD208 plot) is on record?
**A.** 0%

B3: 100–190 ^b: colicin E1 T-domain peptide, residues 100–190 (peptide, UniProt P02978 100-190, looked up, fragment)
chain: EALRHNASRTPSATELAHANNAAMQAEDERLRLAKAEEKARKEAEAAEKAFQEAEQRRKEIEREKAETERQLKLAEAEEKRLAALSEEAKA
**Q.** Which results are given for B3?
**A.** no. of residues, unordered [1]: 12 residues; cooperativity of thermal melting [2]: not cooperative

B4: 1–100 ^b: colicin E1 T-domain peptide, residues 1–100 (peptide)
chain: METAVAYYKDGVPYDDKGQVIITLLNGTPDGSGSGGGGGKGGSKSESSAAIHATAKWSTAQLKKTQAEQAARAKAAAEAQAKAKANRDALTQRLKDIVNE
**Q.** With B4 as the molecule, how does the “no. of residues, helix” value [1] read?
**A.** 30 ± 4 residues

**Q.** What about the “no. of residues, unordered” value [1] of the same molecule?
**A.** ~70 residues

**Q.** What about the “increase in helical residues on lengthening the peptide” value ([1]; versus next shorter peptide (1–81, 1–100, 1–120, 1–140, 1–190 series)) of the same molecule?
**A.** 17 residues

**Q.** What about the “occlusion of TolC channels (Figure 3 legend)” value (TolC) of the same molecule?
**A.** Lack of TolC occlusion

**Q.** And the “effect on transmembrane current through TolC channels” value (TolC; 10 μg/mL)?
**A.** did not decrease the transmembrane current

B5: colicin E1 T-domain peptide T57–140 (domain or fragment)
chain: WSTAQLKKTQAEQAARAKAAAEAQAKAKANRDALTQRLKDIVNEALRHNASRTPSATELAHANNAAMQAEDERLRLAKAEEKAR
**Q.** What does the source list for B5?
**A.** co-elution / interaction with TolC, in words (TolC trimer [5]): severe protein precipitation; no. of residues, helix [1]: 54 ± 4 residues; no. of residues, unordered [1]: 30 residues; concentration at which TolC channels were efficiently occluded (TolC; I = 0.1 M, pH 7.5): ≥ 0.2 µM; concentration at which TolC channels were not occluded (TolC; I = 0.1 M, pH 7.5): 40 nM; Kd (TolC trimer [6]): ~0.1 µM

B6: colicin E1 T-domain peptide T1–120 (domain or fragment, UniProt P02978 1-120, looked up)
chain: METAVAYYKDGVPYDDKGQVIITLLNGTPDGSGSGGGGGKGGSKSESSAAIHATAKWSTAQLKKTQAEQAARAKAAAEAQAKAKANRDALTQRLKDIVNEALRHNASRTPSATELAHANN
**Q.** Which “co-elution / interaction with TolC, in words” value (TolC trimer [5]) does the source give for B6 here?
**A.** Co-elution was detected

**Q.** What about the “no. of residues, helix” value [1] of the same molecule?
**A.** 46 ± 12 residues

**Q.** And the “no. of residues, unordered” value [1]?
**A.** 74 residues

**Q.** Does B6 bind (TolC trimer [7])?
**A.** binds

B7: 1–81 ^c: colicin E1 T-domain peptide, residues 1–81 (peptide, UniProt P02978 1-81, looked up, fragment)
chain: METAVAYYKDGVPYDDKGQVIITLLNGTPDGSGSGGGGGKGGSKSESSAAIHATAKWSTAQLKKTQAEQAARAKAAAEAQA
**Q.** For B7, which “secondary structure, in words” value [1] is on record?
**A.** low helical content

**Q.** What about the “secondary structure, in words” value ([1]; listed as T1–81) of the same molecule?
**A.** predominately disordered

**Q.** What about the “no. of residues, helix” value [1] of the same molecule?
**A.** 13 ± 2 residues

**Q.** What about the “no. of residues, unordered” value [1] of the same molecule?
**A.** ~70 residues

B8: colicin E1 T-domain peptide T1–140 (domain or fragment, UniProt P02978 1-140, looked up)
chain: METAVAYYKDGVPYDDKGQVIITLLNGTPDGSGSGGGGGKGGSKSESSAAIHATAKWSTAQLKKTQAEQAARAKAAAEAQAKAKANRDALTQRLKDIVNEALRHNASRTPSATELAHANNAAMQAEDERLRLAKAEEKAR
**Q.** Does B8 bind (TolC trimer [7])?
**A.** binds

B9: 41–120 ^b: colicin E1 T-domain peptide, residues 41–120 (peptide, UniProt P02978 41-120, looked up, fragment)
chain: GGSKSESSAAIHATAKWSTAQLKKTQAEQAARAKAAAEAQAKAKANRDALTQRLKDIVNEALRHNASRTPSATELAHANN
**Q.** Which “no. of residues, helix” value [1] does the source give for B9 here?
**A.** 29 ± 2 residues

**Q.** And the “no. of residues, unordered” value [1]?
**A.** 51 residues

B10: 81–141 ^c: colicin E1 T-domain peptide, residues 81–141 (peptide, UniProt P02978 81-141, looked up, fragment)
chain: AKAKANRDALTQRLKDIVNEALRHNASRTPSATELAHANNAAMQAEDERLRLAKAEEKARK
**Q.** Which “no. of residues, unordered” value [1] does the source give for B10 here?
**A.** 44 residues

B11: 41–140 ^b: colicin E1 T-domain peptide, residues 41–140 (peptide, UniProt P02978 41-140, looked up, fragment)
chain: GGSKSESSAAIHATAKWSTAQLKKTQAEQAARAKAAAEAQAKAKANRDALTQRLKDIVNEALRHNASRTPSATELAHANNAAMQAEDERLRLAKAEEKAR
**Q.** For B11, which “no. of residues, helix” value [1] is on record?
**A.** 65 ± 5 residues

**Q.** What about the “no. of residues, unordered” value [1] of the same molecule?
**A.** 35 residues

B12: colicin E1 T-domain peptide T57–120 (domain or fragment, UniProt P02978 57-120, looked up)
chain: WSTAQLKKTQAEQAARAKAAAEAQAKAKANRDALTQRLKDIVNEALRHNASRTPSATELAHANN
**Q.** Which “co-elution / interaction with TolC, in words” value (TolC trimer [5]) does the source give for B12 here?
**A.** severe protein precipitation

**Q.** What about the “no. of residues, helix” value [1] of the same molecule?
**A.** 44 ± 4 residues

**Q.** And the “no. of residues, unordered” value [1]?
**A.** 20 residues

**Q.** Does B12 bind (TolC trimer [8])?
**A.** binds
